First the molecules themselves.
B1: Phl p 2-specific human IgE Fab, clone 60 (Fab, V domains shown)
VH: LESGPGLVKPSQTLSLTCTVSGGSIRSGGYYWSWVRQPPGKGLEWIGNIYHSGNTYYNPSLKSRITMSVDTSKNHFSLRLTSVTAADTAVYYCARSDGYTLDNWGQGTLVTVSS
VL: ELTQSPSSLSASVGDRVTITCRARQSISTYLNWYQQKPGKAPKLLIWSASNLQSGVPSRFSGSGSGTEFTLTISNLQFEDFASYYCQQSYTTLYTFGSGTKLEIKR
notes: Human IgE Fab (Fd plus kappa light chain) expressed from pComb3H in E. coli and used as bacterial extract; also called rPhl p 2-specific IgE Fab; anti-Phl p 2 Fab
B2: Phl p 2-specific human IgE Fab, clone 100 (Fab, V domains shown)
VH: LESGPGLVKPSQTLSLTCTVSGGSIRSGGYYWSWIRQPPGKGLEWIGYIYHSGNTYYNPSLKSRVTMSVDTSKNHFSLRLSSVTAADTAVYYCARSDGYTLDNWGQGTLVTVSS
VL: ELTQSPSSVSASVGDRVTITCRASQGISSWLAWYQHQPGKAPKLLIYSASSLQSGVPSRFSGSGYGTDFSLTISSLQFEDSATYYCQQANSFPYTFGQGTKVEIKR
notes: as for B1
B3: Phl p 2-specific human IgE Fab, clone 94 (Fab, V domains shown)
VH: LESGPGLVKPAQTLSLSCAVSGGSIRSGGYYWSWIRQHPGKGLEWIGYIYHSGNTYYNPSLKSRIAMSVDTSENKFSLRLNSVTAADTAVYYCARLDGYTLDIWGQGTLVTVSS
VL: ELTQSPSSLSASVGDRVTISCRASQRINTYLNWYQHKPGKAPKLLIYAASSLQSGVPSRFSGSGYGTDFTLTISSLQFEDFASYYCQESLSASYTFGQGTKVEIKR
notes: Human IgE Fab (heavy chain fragment Fd plus kappa light chain) expressed from pComb3H in E. coli and used as bacterial extract; they start at the Xho I / Sac I cloning sites; also called clone 94-derived IgE Fab; rPhl p 2-specific IgE Fab

Here are results for 3 molecules from patent publication US7288381 (PHADIA, dated 2007).

The target of the assay is T1, β-gal alone (λgt 11 phage control proteins) (UniProt P00722 2-1024 = β-galactosidase).
T1 construct: Negative control dot; also called β-gal alone (4); λgt 11 phage control proteins (4)
T1 sequence (P00722 2-1024 limits assumed): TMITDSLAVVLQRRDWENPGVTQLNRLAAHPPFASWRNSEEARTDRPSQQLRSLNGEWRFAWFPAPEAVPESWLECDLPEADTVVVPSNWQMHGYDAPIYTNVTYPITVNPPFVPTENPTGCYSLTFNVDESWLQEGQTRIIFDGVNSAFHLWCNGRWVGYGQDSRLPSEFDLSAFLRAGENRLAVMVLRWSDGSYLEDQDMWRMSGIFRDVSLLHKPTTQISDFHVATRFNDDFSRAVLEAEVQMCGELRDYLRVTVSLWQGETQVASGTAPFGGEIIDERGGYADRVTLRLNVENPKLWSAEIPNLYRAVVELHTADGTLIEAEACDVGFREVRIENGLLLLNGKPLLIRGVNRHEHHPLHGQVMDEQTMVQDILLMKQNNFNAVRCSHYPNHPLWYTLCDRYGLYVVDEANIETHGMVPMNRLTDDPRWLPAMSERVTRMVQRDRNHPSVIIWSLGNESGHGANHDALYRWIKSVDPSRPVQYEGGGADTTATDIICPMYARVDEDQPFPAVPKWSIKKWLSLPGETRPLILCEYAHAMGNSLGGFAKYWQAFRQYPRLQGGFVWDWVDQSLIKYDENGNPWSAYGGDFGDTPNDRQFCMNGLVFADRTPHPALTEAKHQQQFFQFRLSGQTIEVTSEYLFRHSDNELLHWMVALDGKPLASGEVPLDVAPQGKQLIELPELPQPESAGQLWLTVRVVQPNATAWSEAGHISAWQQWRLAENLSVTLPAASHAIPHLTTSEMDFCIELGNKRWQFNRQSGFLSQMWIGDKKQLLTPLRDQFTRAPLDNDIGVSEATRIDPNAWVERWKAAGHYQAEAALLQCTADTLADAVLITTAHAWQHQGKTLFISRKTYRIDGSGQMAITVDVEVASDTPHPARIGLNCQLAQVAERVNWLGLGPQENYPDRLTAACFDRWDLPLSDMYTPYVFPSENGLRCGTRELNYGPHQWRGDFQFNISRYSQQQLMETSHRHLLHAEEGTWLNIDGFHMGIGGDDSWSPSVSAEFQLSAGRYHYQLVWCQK
The assay is described as follows: dot blot of β-gal fusion proteins, anti-human Fab detection. As for the experimental part: Expression of Recombinant Fragments of the Phl p 2 Allergen for Mapping of the Binding Sites of the Human IgE Fabs Lambda gt11 phage clones expressing β-galactosidase fused complete Phl p 2 and Phl p 2 fragments were generated as described (8). E. coli Y1090 were plated as confluent lawn onto LB plates containing 100 mg/l ampicillin (19). Two µl aliquots of phage lysates containing >10^6 plaque-forming units of each phage clone were dotted onto the E. coli lawn in defined order and plates were incubated at 43° C. until plaques became visible. The synthesis of recombinant protein was induced by overlay with 10 mM IPTG-soaked nitrocellulose filters (Schleicher& Schuell, Dassel, Germany) for additional 4 hours The clones which reacted with the IgE Fabs were identified by immunoscreening. For this purpose filters were washed twice for 5 min and once for 30 min with TBST containing 0.5% w/v BSA at roomtemperature and then probed overnight with E. coli extracts containing anti-Phl p 2 Fab and, for control purposes, with extracts from E. coli transformed with the empty pComb 3H plasmid at 4° C. After washing, the Fabs were detected with an alkaline phospatase-coupled goat anti-human Fab antiserum diluted 1:5000 in TBST/0.5% w/v BSA.
A Recombinant Fragment Comprising the N-terminal 64 Amino Acids of Phl p 2 Contains the Binding Site for the IgE Fabs In order to determine the binding site for the rPhl p 2-specific IgE Fabs, nitrocellulose-dotted complete β-gal-fused rPhl p 2 allergen (96 aa), a N-terminal rPhl p 2 fragment comprising the first 64 aa portion (1-64) and a 69 aa long C-terminal rPhl p 2 fragment (28-96 aa) were exposed to the Fabs (FIG. 2A). […] The N-terminal and C-terminal fragment have been indicated in the model (FIG. 2B).
As to B1, the binding result was “no binding”.
B2: the binding result was “no binding”.
Regarding B3, the binding result is reported as “no binding”.
